Columns and labels:
IGF-II = IGF-II (Homo sapiens, UniProt P01344); conditions: IGFBP-1 purified from amniotic fluid; cited from earlier work
IGF-I = IGF-I (Homo sapiens, UniProt P05019); conditions: IGFBP-1 purified from amniotic fluid; cited from earlier work
[1] = pH increased from 5.5 to 6.5; cited from earlier work
IGFBP-1 = target: T1, IGFBP-1 (Homo sapiens, UniProt P08833); experiment: Azurocidin-dependent IGFBP-1 protease activity (SDS-PAGE, ECL or silver staining); type: biochemical
T1 construct: purchased Kabi Pharmacia (Sweden), donated
T1 sequence (P08833 26-259): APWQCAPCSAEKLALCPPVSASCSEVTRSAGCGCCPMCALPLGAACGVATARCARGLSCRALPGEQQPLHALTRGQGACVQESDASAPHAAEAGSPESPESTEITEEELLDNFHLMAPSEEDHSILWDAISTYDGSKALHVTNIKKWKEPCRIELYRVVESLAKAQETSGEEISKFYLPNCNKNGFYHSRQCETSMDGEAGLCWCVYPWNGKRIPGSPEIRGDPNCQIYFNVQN
Procedure: Recombinant phosphorylated IGFBP-1 was used as substrate and incubations were carried out under neutral conditions for 2 h at 37 C. IGFBP-1 fragments were separated on SDS-PAGE, and detected by ECL as described in the methods. Panel A: Incubations with 0.25 μL eluate (HE) from heparin affinity chromatography (50 μl urine equiv.) in the presence and absence of anti-azurocidin antibody; and 1 μl HE of the loading material (L), and the flow through after affinity chromatography on protein G columns without (G) and with bound anti-chymase (C) or anti-azurocidin (A) antibodies. Panel B: Incubations in the presence and absence of 25 ng anti-azurocidin antibody with increasing volumes of white cell extract from the individual with a specific IGFBP-1 protease in urine compared to the white cell extract pooled from 6 healthy subjects;
Recombinant IGFBP-1 was incubated with the eluate from heparin affinity chromatography (HE) with a ratio of azurocidin:BP-1 of 1:3,500. After the times indicated, proteins were detected by silver staining after SDS-PAGE;
Gels were fixed, dried and analysed with the Fuji PhosphoImage program (Fuji Co., Stockholm, Sweden). Biotinylated IGFBP-1 and its fragments were separated on 14% SDS-PAGE under reducing conditions, transferred to PVDF (Biorad, Sundbyberg, Sweden), incubated with neutravidin-horseradish peroxidase (Pierce Biotechnology Inc, Rochester, Ill.) and detected by ECL (Amersham Biosciences, Uppsala, Sweden). Silver staining of proteins and fragments was performed after denaturing 12% PAGE under reducing conditions (SilverQuest and NuPAGE, Invitrogen, Stockholm, Sweden).
Heparin affinity chromatography was carried out in batches using heparin-agarose gel (Pharmacia). Urine was diluted 1:5 in 10 mM sodium phosphate, with 0.25 M NaCl buffer, pH 7 and incubated with gel for 30 min at 4 C. The gel was transferred to a column and washed with 10 times the gel volume of buffer. Heparin binding proteins were eluted in loading buffer containing 2M NaCl and the eluate was desalted, concentrated using a 10 kDa spin column and stored at −80 C. Concentrated material derived from 700 ml urine were applied to C4 reverse-phase HPLC, in 0.1% TFA on an acetonitrile gradient of 0-100%. Immunoaffinity chromatography was performed using monoclonal anti-azurocidin antibody attached to protein G Sepharose (Sigma-Aldrich, Sweden). In brief, antibody bound gel was incubated with the eluate from heparin affinity chromatography for 2 h at 22 C, and transferred to a Bio-Spin chromatography column (BioRad). The flow-through was collected for analysis of protease activity. As controls, an additional column was prepared with a monoclonal antibody against human mast cell chymase and a second column with no bound antibody.

monocyte = conditions: cited from earlier work

Chain of IGF-II (P01344 25-91): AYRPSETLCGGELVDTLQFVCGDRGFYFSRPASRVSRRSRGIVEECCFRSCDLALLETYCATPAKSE
Chain of IGF-I (P05019 49-118): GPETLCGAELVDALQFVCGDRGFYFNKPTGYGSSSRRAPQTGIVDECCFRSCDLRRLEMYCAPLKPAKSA

Molecule | association constant for IGF-II (IGF-II) [L/mol] | association constant for IGF-I (IGF-I) | decrease of bactericidal activity [1] | pH above which action on IGFBP-1 is greater (IGFBP-1) | effect on IGFBP-1 (proteolysis) after HPLC-passage (IGFBP-1; after reverse-phase HPLC) | time until proteolysis of phosphorylated IGFBP-1 is seen (IGFBP-1; protease:substrate molar ratio 1:3,500) | concentration at which proteolytic effect on IGFBP-1 is noticeable (IGFBP-1; purified preparation) | concentration level required for monocyte chemotaxis (monocyte)
IGFBP-1 purified from amniotic fluid: 28 kDa IGF-binding protein purified from human amniotic fluid (protein, UniProt P08833 26-259, looked up) Insulin-like growth …: APWQCAPCSAEKLALCPPVSASCSEVTRSAGCGCCPMCALPLGAACGVATARCARGLSCRALPGEQQPLHALTRGQGACVQESDASAPHAAEAGSPESPESTEITEEELLDNFHLMAPSEEDHSILWDAISTYDGSKALHVTNIKKWKEPCRIELYRVVESLAKAQETSGEEISKFYLPNCNKNGFYHSRQCETSMDGEAGLCWCVYPWNGKRIPGSPEIRGDPNCQIYFNVQN | ~3.2e+09 | approximately 6.6×10^9 L/mol |  |  |  |  |  | 
azurocidin: protein from granules of human polymorphonuclear leukocytes, SEQ ID NO. 1; identified here as IGFBP-1 specific protease (protein, listed as Homo sapiens) IVGGRKARPRQFPFLASIQNQGRHFCGGALIHARFVMTAASCFQSQNPGVSTVVLGAYDLRRRERQSRQTFSISSMSENGYDPQQNLNDLMLLQLDREANLTSSVTILPLPLQNATVEAGTRCQVAGWGSQRSGGRLSRFPRFVNVTVTPEDQCRPNNVCTGVLTRRGGICNGDGGTPLVCEGLAHGVASFSLGPCGRGPDFFTRVALFRDWIDGVLNNPGPGPA |  |  | at least 50% | > 6 | without effect | within minutes | nanomolar | micromolar
